In patent US20140127211A1 (Pfizer, published 2014):

Experiments:
[1] = target: T1, human Notch3 NRR recombinant protein (Notch3 NRR_Avi_His tag) (human); experiment: SPR (Biacore T100), antibody captured on anti-human IgG-Fc, Notch3 NRR as analyte, 1:1 Langmuir fit
T1 construct: Purified from CHO-PACE cells; the entry includes the C-terminal Avi and His6 tag
T1 chain: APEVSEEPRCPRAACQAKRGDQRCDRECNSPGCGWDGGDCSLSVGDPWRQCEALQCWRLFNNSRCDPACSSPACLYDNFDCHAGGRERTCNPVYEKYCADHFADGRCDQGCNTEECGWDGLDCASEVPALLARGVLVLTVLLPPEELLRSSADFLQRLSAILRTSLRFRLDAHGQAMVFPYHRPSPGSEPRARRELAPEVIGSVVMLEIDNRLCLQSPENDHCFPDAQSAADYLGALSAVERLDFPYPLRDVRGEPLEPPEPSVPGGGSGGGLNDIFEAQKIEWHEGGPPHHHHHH
Experimental: The kinetic constants of the anti-Notch3 NRR interactions were determined by surface plasmon resonance (Biacore® T100, Biacore Inc., Piscataway, N.J.). Flow cells of a CM5 chip were immobilized with approximately 10,000 response units (RU) of anti-human IgG-Fc (Biacore®) in 10 mM Glycine, pH 5.0 at 10 μl/min for 600 seconds. […] Association of four concentrations of human Notch3 NRR recombinant protein (from 3.7-100 nM) and a zero concentration (running buffer) at 100 μl/min were recorded for 3 minutes in TBS with 1 mM CaCl₂. Dissociation of the complexes was measured for 10 minutes. The surface of the chip was regenerated by injecting 3M MgCl₂ with 3 mM EGTA for 60 seconds at 10 μl/min. Curves obtained after subtraction of the reference and buffer signals were fitted to a 1:1 Langmuir binding model with Biacore® T100 Evaluation Software (Biacore®).

[2] = target: T1, human Notch3 NRR recombinant protein …; experiment: ELISA, plate-coated recombinant protein
Experimental: (§1) Purified human or mouse Notch3 NRR recombinant proteins were coated on CoStar hi-bound 96-well ELISA plates in 100 μl of PBS with Mg/Ca at a concentration of 1 μg/ml overnight. The plates were washed with PBS-Mg/Ca and blocked for 1 hour with 1% BSA in PBS-Mg/Ca. Blocking solution was decanted from the plate and 1:3 serial dilutions of antibodies in blocking solutions were applied to the plate. After incubation at room temperature for 1 hour, plates were washed again with PBS-Mg/Can before HRP (horse radish peroxidase)-conjugated secondary antibody diluted (1:20,000) in blocking buffer was applied. When the primary antibody tested was rat IgG, the secondary antibody was goat anti-rat IgG Fc (Bethyl Biotech); and when the primary antibody was human IgG, the secondary antibody was goat anti-human IgG Fc (Southern Biotech).
(§2) After 1 hour incubation with the secondary antibody, plates were washed again, as described above, and TMB substrate solution was added. The developing reaction was allowed for 10 minutes before the stopping solution, 0.18M H₂SO₄, was added.

[3] = target: T2, mouse Notch3 NRR recombinant protein (Notch3 NRR_Avi_His tag) (mouse); experiment: ELISA, plate-coated recombinant protein
T2 construct: The entry includes the C-terminal Avi and His tag; S1-cleaved heterodimer as for the human protein
T2 chain: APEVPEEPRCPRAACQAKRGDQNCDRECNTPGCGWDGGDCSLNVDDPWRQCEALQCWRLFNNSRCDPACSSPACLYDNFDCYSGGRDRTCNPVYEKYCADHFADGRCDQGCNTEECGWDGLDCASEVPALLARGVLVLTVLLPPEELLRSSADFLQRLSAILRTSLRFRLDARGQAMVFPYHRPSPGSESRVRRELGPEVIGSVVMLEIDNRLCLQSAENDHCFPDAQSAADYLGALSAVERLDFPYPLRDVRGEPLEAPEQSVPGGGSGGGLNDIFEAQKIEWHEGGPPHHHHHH
Experimental: as §1, §2

[4] = target: T3, full-length human Notch3 expressed on the cell surface (human, UniProt Q9UM47 40-2321); experiment: competition ELISA on U2OS/hNotch3 cells; competitor 0.8 nM biotinylated ch28
T3 construct: whole, on cells; also called hNotch3; U2OS/hNotch3
Experimental: 96 well cell culture plates were seeded with U2OS/hNotch3 cells (cell culture plate, Co-star). […] After incubation for 2 hours, the plates were washed, as described above, and HRP-conjugated streptavidin (Southern Biotech) diluted 1:5000 in blocking buffer was applied. After incubation with streptavidin for 30 minutes, the plates were washed again before being developed with TMB solution for 10 minutes. […] Data plotting and analyses were performed with Microsoft Excel and Graphpad-Prism software.

[5] = target: T4, full-length mouse Notch3 expressed on the cell surface (mouse, UniProt Q61982 40-2318); experiment: cell-based ELISA, U2OS/mNotch3 cells
T4 construct: whole, on cells; Over-expressed on U-2 OS cells; also called U2OS/mNotch3
Experimental: (§3) U-2 OS cells stably over-expressing human or mouse full length Notch3 protein on cell surface (hereinafter U2OS/hNotch3 and U2OS/mNotch3, respectively) were plated at 50,000 cells/well in 96 well plates (white opaque, BD/VWR) the day before ELISA assay. On the day of the ELISA, culture media was removed from wells and serially diluted (1:3 in blocking buffer) antibody solutions were applied to the plate. Plates were incubated at room temperature for 2 hours before being washed with PBS-Mg/Ca. HRP-conjugated secondary antibody was then applied and incubated with cells for 1 hour as described above for recombinant protein ELISA. Plates were washed with PBS-Mg/Ca before being developed with Pico-Chemiluminescent developing kit (Thermal Scientific), and chemiluminescence measurements were performed per manufacturer's instructions. Data plotting and analyses were performed with Microsoft Excel and Graphpad-Prism software.

[6] = target: T3, full-length human Notch3 expressed on …; experiment: cell-based ELISA, U2OS/hNotch3 cells
Experimental: as §3

[7] = target: T5, Notch 1-3 NRR domain swap chimera: A of Notch1; B, C, hd1, hd2 of Notch3 (row 4, unnamed on the sheet) (human); experiment: ELISA: NRR-Fc protein coated at 1 ug/ml, antibody applied at 5 ug/ml, goat anti-human Fc-HRP, TMB, O.D. 450 nM
T5 construct: part of the NRR
Experimental: (§4) After 1 hour of incubation, plates were washed with PBS with 0.9 mM Mg²⁺ and Ca²⁺, before secondary goat anti-human Fc antibody conjugated with HRP were applied and incubated on the plates. After washing again, the plates were developed with TMB and the developing reactions were stopped by adding 0.18M H₂SO₄.

[8] = target: T6, Notch 1-3 NRR domain swap chimera: B of Notch1; A, C, hd1, hd2 of Notch3 (row 5, unnamed on the sheet) (human); experiment: as above
T6 construct: part of the NRR
Experimental: as §4

[9] = target: Notch3-NRR (human); experiment: as above
Experimental: as §4

[10] = target: T7, human Notch1 NRR-Fc (human, UniProt P46531 1446-1733, limits assumed); experiment: as above
T7 construct: domain: NRR region; Made in CHO-PACE cells; not shown: human IgG1 Fc fragment
T7 sequence (looked up): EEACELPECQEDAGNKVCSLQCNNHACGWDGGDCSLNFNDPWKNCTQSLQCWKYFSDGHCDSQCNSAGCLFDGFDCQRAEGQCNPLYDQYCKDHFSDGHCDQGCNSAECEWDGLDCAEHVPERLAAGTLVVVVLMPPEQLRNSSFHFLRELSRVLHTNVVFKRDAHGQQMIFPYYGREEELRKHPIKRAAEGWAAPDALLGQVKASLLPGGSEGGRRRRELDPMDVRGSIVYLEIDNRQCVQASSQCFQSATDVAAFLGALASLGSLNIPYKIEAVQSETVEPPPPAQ

[11] = target: T8, Notch 1-3 NRR domain swap chimera: hd2 of Notch1; A, B, C, hd1 of Notch3 (row 8, unnamed on the sheet) (human); experiment: as above
T8 construct: part of the NRR
Experimental: as §4

[12] = target: T4, full-length mouse Notch3 expressed on …; experiment: cell-based ELISA, U-2 OS cells over-expressing mouse Notch3
[13] = target: T1, human Notch3 NRR recombinant protein …; experiment: ELISA, recombinant protein, hybridoma supernatant

T3 sequence (Q9UM47 40-2321): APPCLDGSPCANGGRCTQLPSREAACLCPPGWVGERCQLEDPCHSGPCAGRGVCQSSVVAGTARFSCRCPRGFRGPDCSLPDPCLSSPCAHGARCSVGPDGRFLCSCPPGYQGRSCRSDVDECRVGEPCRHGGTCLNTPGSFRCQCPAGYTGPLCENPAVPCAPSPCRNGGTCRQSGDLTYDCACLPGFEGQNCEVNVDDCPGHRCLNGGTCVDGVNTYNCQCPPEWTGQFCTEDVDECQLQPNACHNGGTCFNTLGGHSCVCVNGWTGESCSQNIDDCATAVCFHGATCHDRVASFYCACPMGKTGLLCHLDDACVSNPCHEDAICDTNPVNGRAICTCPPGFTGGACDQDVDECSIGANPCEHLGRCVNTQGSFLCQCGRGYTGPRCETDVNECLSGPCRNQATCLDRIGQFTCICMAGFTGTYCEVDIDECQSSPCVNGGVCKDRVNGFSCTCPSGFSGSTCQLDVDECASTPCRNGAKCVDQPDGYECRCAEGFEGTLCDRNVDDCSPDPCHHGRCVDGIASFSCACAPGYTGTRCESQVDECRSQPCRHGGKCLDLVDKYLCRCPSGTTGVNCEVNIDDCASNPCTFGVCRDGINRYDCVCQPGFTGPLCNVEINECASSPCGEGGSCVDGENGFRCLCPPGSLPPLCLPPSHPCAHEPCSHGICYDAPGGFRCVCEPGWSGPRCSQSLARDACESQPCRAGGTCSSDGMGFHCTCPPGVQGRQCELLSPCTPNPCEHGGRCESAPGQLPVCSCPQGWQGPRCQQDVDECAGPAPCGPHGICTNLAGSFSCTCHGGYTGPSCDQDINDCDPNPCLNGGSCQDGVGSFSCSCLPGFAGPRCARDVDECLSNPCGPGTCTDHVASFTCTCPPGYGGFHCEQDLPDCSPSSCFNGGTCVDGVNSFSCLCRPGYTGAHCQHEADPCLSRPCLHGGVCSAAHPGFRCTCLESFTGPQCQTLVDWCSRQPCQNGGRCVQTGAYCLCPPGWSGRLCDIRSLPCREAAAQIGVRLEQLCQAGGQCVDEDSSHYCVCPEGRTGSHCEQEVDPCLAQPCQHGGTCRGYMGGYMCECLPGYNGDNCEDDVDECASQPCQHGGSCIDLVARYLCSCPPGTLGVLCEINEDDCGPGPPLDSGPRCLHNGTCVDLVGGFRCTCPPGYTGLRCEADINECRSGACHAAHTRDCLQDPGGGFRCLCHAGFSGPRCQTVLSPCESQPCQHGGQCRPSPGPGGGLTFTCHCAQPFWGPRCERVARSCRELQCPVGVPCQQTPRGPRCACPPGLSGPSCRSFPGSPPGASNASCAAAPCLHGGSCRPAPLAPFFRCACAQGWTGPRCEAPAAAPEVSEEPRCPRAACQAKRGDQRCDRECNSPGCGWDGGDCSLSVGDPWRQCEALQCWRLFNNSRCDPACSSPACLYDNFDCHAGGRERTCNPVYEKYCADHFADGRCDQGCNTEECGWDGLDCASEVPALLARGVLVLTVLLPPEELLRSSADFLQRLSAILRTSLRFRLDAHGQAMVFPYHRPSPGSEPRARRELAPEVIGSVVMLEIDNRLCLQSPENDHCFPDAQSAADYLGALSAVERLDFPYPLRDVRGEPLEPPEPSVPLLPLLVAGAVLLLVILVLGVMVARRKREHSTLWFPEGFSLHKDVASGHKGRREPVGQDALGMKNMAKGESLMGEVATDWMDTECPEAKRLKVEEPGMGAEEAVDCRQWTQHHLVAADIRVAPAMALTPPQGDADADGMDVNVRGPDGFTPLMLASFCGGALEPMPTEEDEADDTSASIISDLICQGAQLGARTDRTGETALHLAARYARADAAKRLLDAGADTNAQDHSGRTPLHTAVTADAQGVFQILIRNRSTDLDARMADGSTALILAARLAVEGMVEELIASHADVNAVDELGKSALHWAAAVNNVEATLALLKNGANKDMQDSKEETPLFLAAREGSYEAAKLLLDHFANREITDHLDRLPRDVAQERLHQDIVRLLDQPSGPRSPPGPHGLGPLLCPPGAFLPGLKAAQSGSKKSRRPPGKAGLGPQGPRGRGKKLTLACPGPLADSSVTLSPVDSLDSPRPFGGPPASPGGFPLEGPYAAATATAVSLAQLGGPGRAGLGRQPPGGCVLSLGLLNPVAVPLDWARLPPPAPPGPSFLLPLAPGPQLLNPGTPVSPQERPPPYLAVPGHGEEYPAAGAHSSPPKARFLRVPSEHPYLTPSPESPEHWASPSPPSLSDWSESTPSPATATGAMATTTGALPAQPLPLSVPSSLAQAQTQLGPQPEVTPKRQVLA
T4 sequence (Q61982 40-2318): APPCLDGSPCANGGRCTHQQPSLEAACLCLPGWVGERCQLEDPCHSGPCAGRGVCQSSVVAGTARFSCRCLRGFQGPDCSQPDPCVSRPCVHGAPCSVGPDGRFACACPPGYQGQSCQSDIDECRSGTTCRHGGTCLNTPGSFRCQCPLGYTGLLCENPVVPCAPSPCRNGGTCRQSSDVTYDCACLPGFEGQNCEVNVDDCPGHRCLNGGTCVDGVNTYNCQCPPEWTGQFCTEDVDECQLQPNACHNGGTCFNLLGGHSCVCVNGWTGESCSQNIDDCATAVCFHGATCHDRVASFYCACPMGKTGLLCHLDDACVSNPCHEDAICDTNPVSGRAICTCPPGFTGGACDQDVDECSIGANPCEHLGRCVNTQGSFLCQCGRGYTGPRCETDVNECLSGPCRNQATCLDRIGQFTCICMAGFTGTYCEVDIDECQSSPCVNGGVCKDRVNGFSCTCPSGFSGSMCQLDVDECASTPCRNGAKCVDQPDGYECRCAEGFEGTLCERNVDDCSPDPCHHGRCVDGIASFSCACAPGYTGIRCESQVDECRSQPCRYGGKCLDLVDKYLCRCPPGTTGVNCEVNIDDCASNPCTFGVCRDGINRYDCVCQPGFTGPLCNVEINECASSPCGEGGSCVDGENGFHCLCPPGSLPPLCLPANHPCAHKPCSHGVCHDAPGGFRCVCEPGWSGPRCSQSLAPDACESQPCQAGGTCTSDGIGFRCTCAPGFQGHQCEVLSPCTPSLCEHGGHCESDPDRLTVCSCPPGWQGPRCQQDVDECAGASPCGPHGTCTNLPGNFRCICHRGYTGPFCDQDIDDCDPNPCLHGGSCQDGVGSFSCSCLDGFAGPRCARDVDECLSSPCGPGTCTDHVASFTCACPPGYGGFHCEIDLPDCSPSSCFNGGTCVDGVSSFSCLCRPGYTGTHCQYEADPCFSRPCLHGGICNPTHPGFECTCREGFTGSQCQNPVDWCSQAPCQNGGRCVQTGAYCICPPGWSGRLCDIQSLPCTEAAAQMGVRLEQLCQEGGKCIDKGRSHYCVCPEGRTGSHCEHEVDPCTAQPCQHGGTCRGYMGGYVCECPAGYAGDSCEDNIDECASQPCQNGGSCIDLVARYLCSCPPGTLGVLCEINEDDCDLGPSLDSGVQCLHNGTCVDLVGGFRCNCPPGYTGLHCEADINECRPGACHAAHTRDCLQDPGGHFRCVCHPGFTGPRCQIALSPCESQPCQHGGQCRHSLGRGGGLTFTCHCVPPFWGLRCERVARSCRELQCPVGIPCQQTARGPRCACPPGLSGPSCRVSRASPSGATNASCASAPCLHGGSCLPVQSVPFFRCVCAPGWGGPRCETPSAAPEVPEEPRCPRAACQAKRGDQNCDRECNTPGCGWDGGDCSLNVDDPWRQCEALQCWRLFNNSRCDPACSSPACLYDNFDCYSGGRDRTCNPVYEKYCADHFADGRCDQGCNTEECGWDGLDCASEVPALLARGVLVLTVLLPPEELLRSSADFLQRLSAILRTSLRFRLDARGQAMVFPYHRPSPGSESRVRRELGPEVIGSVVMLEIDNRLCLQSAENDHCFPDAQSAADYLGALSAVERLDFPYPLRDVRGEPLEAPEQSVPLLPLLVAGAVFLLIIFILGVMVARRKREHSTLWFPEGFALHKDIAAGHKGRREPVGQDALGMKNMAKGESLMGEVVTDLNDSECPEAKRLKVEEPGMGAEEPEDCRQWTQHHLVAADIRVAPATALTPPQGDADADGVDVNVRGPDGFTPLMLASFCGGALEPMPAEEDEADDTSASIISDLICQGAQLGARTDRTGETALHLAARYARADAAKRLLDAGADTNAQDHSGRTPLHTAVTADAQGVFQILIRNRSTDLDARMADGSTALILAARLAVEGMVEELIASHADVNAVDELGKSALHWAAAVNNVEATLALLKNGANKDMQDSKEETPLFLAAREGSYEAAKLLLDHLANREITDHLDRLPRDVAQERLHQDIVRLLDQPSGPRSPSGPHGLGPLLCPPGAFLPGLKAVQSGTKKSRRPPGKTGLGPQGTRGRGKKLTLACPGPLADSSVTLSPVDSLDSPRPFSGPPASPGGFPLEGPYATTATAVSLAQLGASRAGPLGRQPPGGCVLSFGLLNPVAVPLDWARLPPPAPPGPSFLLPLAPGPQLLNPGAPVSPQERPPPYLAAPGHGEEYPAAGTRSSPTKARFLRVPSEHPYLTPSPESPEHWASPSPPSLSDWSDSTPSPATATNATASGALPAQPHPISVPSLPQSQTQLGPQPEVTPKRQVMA

B1: rat-human chimeric antibody 28 (ch28) (antibody, V domains shown)
VH: EVQLVESGGGLVQPGRSLTLSCVASGFTFRDYGMTWIRQAPGKGLTWVAYISSGSNYIYYAEAVKGRFTISRDNAKNTLYLQMTSLRSEDTALYFCTRRGPFVLDAWGQGASVTVSS
VL: DIQMTQSPSFLSASVGDRVTINCKASQSINRYLHWFQQKLGEAPKLLIYNANGLQTGIPSRFSGSGSGTDFTLTISSLQSEDVATYFCLQHNTWPDTFGAGTKLELK
notes: also called ch28-hIgG1; ch28-hulgG1
Kd [1]: 0.61 nM | koff [1]: 0.000249 s⁻¹ | kon [1]: 409000 M⁻¹ s⁻¹ | EC50 [2]: ≤ 1 nM | EC50 [3]: ≤ 1 nM | EC50 [4]: 3 nM | EC50 [5]: 0.13 nM | EC50 [6]: 0.098 nM | O.D. 450 nM (ELISA, relative binding capacity) [7]: 0.15 | O.D. 450 nM (ELISA, relative binding capacity) [8]: 0.54 | O.D. 450 nM (ELISA, relative binding capacity) [9]: 2.06 | binding result [10]: no binding (tested: 5 ug/ml) | O.D. 450 nM (ELISA, relative binding capacity) [11]: 0.5

B2: parental rat clone 75 (r75) (antibody, V domains shown)
VH: QVKLLQSGAALVKPGASVKMSCKASGYAFTDYWVTWVKQSHGKSLEWIGEISPNSGGTNFNEKFKGKATLTVDKSTSTAYMELSRLTSEDSAIYYCTRGEIRYNWFAYWGQGTLVTVSS
VL: NIVMTQSPKSMSISVGDRVTMNCKASQNVGNNIAWYQQKPGQSPKLLIYYASNRYTGVPDRFTGGGYGTDFTLTINSMQAEDAAFYYCQRLYNSPFTFGSGTKLEIK
notes: Rat monoclonal antibody from hybridoma, tested as hybridoma supernatant
binding result [12]: no binding | O.D. 450 nM [13]: ≥ 1 O.D. 450 nM
